The source of these data is patent US20040265918A1.

In test [1] the target is p29 vesicles (vesicles carrying p29, the substrate binding subunit of type II iodothyronine 5'-deiodinase, D2) (rat) (UniProt Q62876). In words: in vitro actin binding assay, competition with native F-actin-bound myosin V, 10 nM T4.
Test [2] has as its target p29^GFP-labeled vesicles (vesicles carrying a GFP-tagged p29 fusion protein) [GFP: P42212]. In words: competition with native myosin V in the p29^GFP vesicle / F-actin binding assay, 10 nM T4, ~2-3 pmol polypeptide.
For test [3], the target named is F-actin (actin cytoskeleton of rat astrocytes, Triton-insoluble fraction) (rat). The test is described as follows: in vitro actin binding assay (F-lysate plus V-lysate, Triton fractionation, SDS-PAGE).
For test [4] the target is unchanged. The test is described as follows: in vitro actin binding assay, Triton fractionation, gamma counting and SDS-PAGE.
Test [5] shares this target. In words: in vitro actin binding assay, release after 0.1 mM Ca^2+, 1 mM Mg^2+, 0.1 mM ATP.
Test [6] has the same target. In words: in vitro actin binding assay, release with 5 mM EGTA.
For test [7] the target is unchanged. The test is described as follows: F-lysate plus V-lysate with p29^GFP vesicles, fluorescence of the Triton-insoluble pellet.

In test [1], “? myosin V^tail (entire myosin V tail, residues 953 to 1852) (from UniProt Q99104 953-1852)” showed a percent of the T4-dependent binding of p29 vesicles to F-actin blocked (5 µl) of 50% and a percent of the p29 binding blocked (10 µl) of more than 95%. Moreover, the percent decrease of p29 binding to F-actin in test [2] was more than 75%.
In the case of “? myosin ^1513 (residues 1513-1852) (from UniProt Q99104 1513-1852)”, in test [2], the percent decrease of T4-dependent p29 binding was more than 75%.
On the same count and under the same terms, then “? myosin ^1767 (residues 1767-1852) (from UniProt Q99104 1767-1852)”, with more than 75%.
Regarding “? myosin ^1830 (residues 1830-1852) (from UniProt Q99104 1830-1852) (peptide)”, the percent decrease of T4-dependent p29 binding in test [2] is more than 75%.
For “p29 vesicles (vesicles carrying p29, the substrate binding subunit of type II iodothyronine 5'-deiodinase, D2) (from UniProt Q62876 1-234)”, in test [3], the percent of p29 remaining in the non-actin bound, Triton-soluble fraction (10 nM T3) was more than 90% and the percent of radiolabeled p29 bound to the Triton insoluble, F-actin fraction (10 nM T4) was more than 70%. The percent of total p29 vesicles bound to F-actin (after 10 nM T4) in test [4] is 80%. Also, in test [5], the percent of p29 vesicles released from F-actin by Ca^2+, Mg^2+ and ATP turned out to be 70%. In addition, the percent of the Ca^2+-stimulated release of p29 from F-actin blocked by EGTA in test [6] was more than 50%.
With “p29^GFP-labeled vesicles (vesicles carrying a GFP-tagged p29 fusion protein) (from UniProt P42212 1-238)”, the percent increase in p29^GFP vesicle binding to F-actin at 100 nM T3 in test [7] lay within 10 to 20%.
